The values that follow are results of earlier work, collected in article PMC6116012.

The target of series [1] is PAF15 extended PIP-box peptide PIP-box (Homo sapiens) (UniProt Q15004).
In the next series the target is FEN1 (Homo sapiens) (UniProt P39748).
Another series has as its target PAF15 (Homo sapiens) (UniProt Q15004).

Sequence of UniProt P39748 (P39748 whole entry): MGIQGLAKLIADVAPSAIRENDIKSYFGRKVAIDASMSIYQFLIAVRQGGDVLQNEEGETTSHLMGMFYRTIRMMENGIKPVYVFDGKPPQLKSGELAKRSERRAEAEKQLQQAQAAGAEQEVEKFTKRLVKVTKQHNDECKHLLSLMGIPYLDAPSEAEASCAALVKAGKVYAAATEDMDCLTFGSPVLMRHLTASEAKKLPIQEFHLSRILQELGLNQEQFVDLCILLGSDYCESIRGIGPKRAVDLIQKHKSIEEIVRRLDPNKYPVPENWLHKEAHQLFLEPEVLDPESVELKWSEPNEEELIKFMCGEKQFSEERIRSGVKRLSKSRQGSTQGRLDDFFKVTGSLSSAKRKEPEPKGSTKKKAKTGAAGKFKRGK

Broadly, the Kd is the free concentration of one partner at which half of the binding sites on the other are occupied at equilibrium, for simple one-to-one binding. In the case of PCNA (from UniProt P12004), the Kd in series [1] was 5.6 µM; in the series with FEN1 (Homo sapiens), 0.06 µM; with PAF15 (Homo sapiens) it was 1.1 µM.
